Target: receptor binding domain (RBD) of the SARS-CoV-2 spike protein, WT (SARS-CoV-2, UniProt P0DTC2)
Assay: FACS

B1: Delta-6 scFv (scFv, V domains shown)
VH: EVQLLESGGGLVQPGGTLRLSCAASGFIVSSNYMSWVRQAPGKGLEWVSLVYPGGSTYYADSVKGRFTVSRDNSKNTLYLQMNSLRAEDMAVYYCARDLPSGVDAVDAFDIWGQGTMVTVSS
VL: DIRVTQSPSSLSASVGDRVSITCRASQIISGYLNWYQQKPGSAPQLLIYASSSLQSGVPPRFSGSRSGTEFTLTISSLQPEDFATYYCQQTYSIPFTFGPGTKVDIK
Kd: 6.3 nM

Source: paper PMC12520519 (2025)
